Assay results taken from patent US20230272055A1, “ANTI-MUTANT CALRETICULIN (CALR) ANTIBODIES AND USES THEREOF” (Incyte Corporation, priority 2021, published 2023).

How the values were obtained:
[1] = biological target: Human Type 1 mutCALR (human); experiment: cell-based or functional assay
[2] = biological target: recombinant Flag tag_GFP_tev_hmutCALR Type 1 (human); experiment: HTRF competition against the mutCALR/MPL complex

IC50 of inhibition of cell proliferation (BaF3 cells expressing MPL/mutCALR Type 1) [1] [µg/mL]	concentration at which some signal inhibition was seen [2] [nM]	Substance
> 60		AB1: CAL2 antibody, Dianova
	> 100	CAL2 antibody (Dianova)
